# Test results from US20110300138A1 (published 2011).
# Read-outs that look alike come from different tables or passages of the source.
# Tests used:
# [1] = target: TSHR260-alkaline phosphatase (TSHR260-AP) (human) (UniProt P05187); experiment: TSHR260-AP bridge ELISA, full length TSHR on wells; 10 µg/mL, diluted in assay buffer
# [2] = target: human TSH receptor (full length, wild type) expressed in CHO cells (human) (UniProt P16473); experiment: cell-based or functional assay
# [3] = target: TSHR260-alkaline phosphatase (TSHR260-AP) (human) (UniProt P05187); experiment: TSHR260-AP bridge ELISA, full length TSHR on wells; 100 µg/mL, diluted in HBD
# [4] = target: TSHR260-AP (human); experiment: TSHR260-AP bridge ELISA (full length TSHR on wells, TSHR260-AP in solution); IgG 0.1 µg/mL diluted in HBD serum
# [5] = target: human TSHR (thyroid stimulating hormone receptor) expressed in transfected CHO cells (human) (UniProt P16473); experiment: cell-based or functional assay
# [6] = target: TSHR260-alkaline phosphatase (TSHR260-AP) (human) (UniProt P05187); experiment: TSHR260-AP bridge ELISA, full length TSHR on wells; 0.5 µg/mL, diluted in HBD
# [7] = target: TSHR260-alkaline phosphatase (TSHR260-AP) (human) (UniProt P05187); experiment: TSHR260-AP bridge ELISA, full length TSHR on wells; 0.01 µg/mL, diluted in assay buffer
# [8] = target: human TSHR (wild type, full length) expressed in CHO cells (human) (UniProt P16473); experiment: cell-based or functional assay
# [9] = target: TSHR260-AP (human); experiment: TSHR260-AP bridge ELISA (full length TSHR on wells, TSHR260-AP in solution); IgG 0.05 µg/mL diluted in HBD serum
# [10] = target: TSHR260-AP (human); experiment: TSHR260-AP bridge ELISA (full length TSHR on wells, TSHR260-AP in solution); IgG 10 µg/mL diluted in HBD serum
# [11] = target: TSHR260-alkaline phosphatase (TSHR260-AP) (human) (UniProt P05187); experiment: TSHR260-AP bridge ELISA, full length TSHR on wells; 250 µg/mL, diluted in assay buffer
# [12] = target: TSHR260-alkaline phosphatase (TSHR260-AP) (human) (UniProt P05187); experiment: TSHR260-AP bridge ELISA, full length TSHR on wells; 1 µg/mL, diluted in HBD
# [13] = target: TSHR260-AP (human); experiment: TSHR260-AP bridge ELISA (full length TSHR on wells, TSHR260-AP in solution); IgG 250 µg/mL diluted in assay buffer
# [14] = target: TSHR260-AP (human); experiment: TSHR260-AP bridge ELISA (full length TSHR on wells, TSHR260-AP in solution); IgG 0.1 µg/mL diluted in assay buffer
# [15] = target: TSHR260-AP (human); experiment: TSHR260-AP bridge ELISA (full length TSHR on wells, TSHR260-AP in solution); IgG 0.01 µg/mL diluted in assay buffer
# [16] = target: TSHR260-alkaline phosphatase (TSHR260-AP) (human) (UniProt P05187); experiment: TSHR260-AP bridge ELISA, full length TSHR on wells; 0.01 µg/mL, diluted in HBD
# [17] = target: human TSH receptor (full length, wild type) expressed in CHO cells (human) (UniProt P16473); experiment: cell-based or functional assay; remark: listed apart in the source
# [18] = target: TSHR260-alkaline phosphatase (TSHR260-AP) (human) (UniProt P05187); experiment: TSHR260-AP bridge ELISA, full length TSHR on wells; 1 µg/mL, diluted in assay buffer
# [19] = target: TSHR260-AP (human); experiment: TSHR260-AP bridge ELISA (full length TSHR on wells, TSHR260-AP in solution); IgG 0.05 µg/mL diluted in assay buffer
# [20] = target: TSHR260-AP (human); experiment: TSHR260-AP bridge ELISA (full length TSHR on wells, TSHR260-AP in solution); IgG 0.5 µg/mL diluted in HBD serum
# [21] = target: TSHR260-AP (human); experiment: TSHR260-AP bridge ELISA (full length TSHR on wells, TSHR260-AP in solution); IgG 0.005 µg/mL diluted in assay buffer
# [22] = target: TSHR260-alkaline phosphatase (TSHR260-AP) (human) (UniProt P05187); experiment: TSHR260-AP bridge ELISA, full length TSHR on wells; 0.5 µg/mL, diluted in assay buffer
# [23] = target: TSHR260-alkaline phosphatase (TSHR260-AP) (human) (UniProt P05187); experiment: TSHR260-AP bridge ELISA, full length TSHR on wells; 250 µg/mL, diluted in HBD
# [24] = target: TSHR260-AP (human); experiment: TSHR260-AP bridge ELISA (full length TSHR on wells, TSHR260-AP in solution); IgG 1 µg/mL diluted in HBD serum
substance,measurement,setting,value
5B3 IgG (antibody),Mean absorbance at 405 nm (absorbance at 405 nm),[1],-0.014
same,% Inhibition; T7 serum + 100 µg/mL 5B3 IgG,[2],0%
same,% Inhibition; T8 serum + 100 µg/mL 5B3 IgG,[2],10.9%
same,% Inhibition; T9 serum + 100 µg/mL 5B3 IgG,[2],0%
same,Cyclic AMP concentration; 100 µg/mL 5B3 IgG alone,[2],2.7 pmol/mL
same,Cyclic AMP concentration; HBD + 100 µg/mL 5B3 IgG,[2],4 pmol/mL
same,Cyclic AMP concentration; T7 serum + 100 µg/mL 5B3 IgG,[2],91.9 pmol/mL
same,Cyclic AMP concentration; T8 serum + 100 µg/mL 5B3 IgG,[2],76.3 pmol/mL
same,Cyclic AMP concentration; T9 serum + 100 µg/mL 5B3 IgG,[2],53.2 pmol/mL
same,Mean absorbance at 405 nm (absorbance at 405 nm),[3],0.003
same,Mean absorbance at 405 nm (absorbance at 405 nm),[4],-0.002
same,Cyclic AMP concentration; 3 ng/mL M22 IgG + 10 µg/mL 5B3 IgG,[5],21.6 pmol/mL
same,Cyclic AMP concentration; 3 ng/mL M22 IgG + 100 µg/mL 5B3 IgG,[5],28.1 pmol/mL
same,Cyclic AMP concentration; 100 µg/mL 5B3 IgG,[5],1.1 pmol/mL
same,Mean absorbance at 405 nm (absorbance at 405 nm),[6],-0.001
same,Mean absorbance at 405 nm (absorbance at 405 nm),[7],0.012
same,% Inhibition of T8 serum stimulation; 0.1 µg/mL 5B3 IgG,[8],3%
same,% Inhibition of T8 serum stimulation; 1 µg/mL 5B3 IgG,[8],2%
same,% Inhibition of T8 serum stimulation; 10 µg/mL 5B3 IgG,[8],0%
same,% Inhibition of T8 serum stimulation; 100 µg/mL 5B3 IgG,[8],3%
same,Cyclic AMP concentration; 0.1 µg/mL 5B3 IgG + T8,[8],50.7 pmol/mL
same,Cyclic AMP concentration; 1 µg/mL 5B3 IgG + T8,[8],51.4 pmol/mL
same,Cyclic AMP concentration; 10 µg/mL 5B3 IgG + T8,[8],56 pmol/mL
same,Cyclic AMP concentration; 100 µg/mL 5B3 IgG + T8,[8],50.5 pmol/mL
same,Cyclic AMP concentration; 100 µg/mL 5B3 IgG alone,[8],2.1 pmol/mL
same,Mean absorbance at 405 nm (absorbance at 405 nm),[9],-0.006
same,Mean absorbance at 405 nm (absorbance at 405 nm),[10],-0.006
same,Mean absorbance at 405 nm (absorbance at 405 nm),[11],0.018
same,Mean absorbance at 405 nm (absorbance at 405 nm),[12],0.049
same,Mean absorbance at 405 nm (absorbance at 405 nm),[13],0.018
same,Mean absorbance at 405 nm (absorbance at 405 nm),[14],-0.013
same,Mean absorbance at 405 nm (absorbance at 405 nm),[15],0.012
same,Mean absorbance at 405 nm (absorbance at 405 nm),[16],0.027
same,% Inhibition; T10 serum + 100 µg/mL 5B3 IgG,[17],0%
same,% Inhibition; T11 serum + 100 µg/mL 5B3 IgG,[17],3.2%
same,% Inhibition; T12 serum + 100 µg/mL 5B3 IgG,[17],0%
same,Cyclic AMP concentration; 100 µg/mL 5B3 IgG alone,[17],2 pmol/mL
same,Cyclic AMP concentration; HBD + 100 µg/mL 5B3 IgG,[17],2.4 pmol/mL
same,Cyclic AMP concentration; T10 serum + 100 µg/mL 5B3 IgG,[17],59.3 pmol/mL
same,Cyclic AMP concentration; T11 serum + 100 µg/mL 5B3 IgG,[17],39.7 pmol/mL
same,Cyclic AMP concentration; T12 serum + 100 µg/mL 5B3 IgG,[17],43.3 pmol/mL
same,Mean absorbance at 405 nm (absorbance at 405 nm),[18],-0.004
same,Mean absorbance at 405 nm (absorbance at 405 nm),[19],-0.009
same,Mean absorbance at 405 nm (absorbance at 405 nm),[20],-0.001
same,Mean absorbance at 405 nm (absorbance at 405 nm),[21],-0.012
same,Mean absorbance at 405 nm (absorbance at 405 nm),[22],-0.006
same,Mean absorbance at 405 nm (absorbance at 405 nm),[23],0.012
same,Mean absorbance at 405 nm (absorbance at 405 nm),[24],0.049
